Assay results: the supplement of paper PMC9170038

Test system: MS2 coat protein
Assay: apparent KD of MS2 coat protein; higher = weaker reporter binding
Conditions: Eterna round: R107
Summary of the method: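 Each design's apparent KD comes from the median of binding-curve fits to its normalised clusters. Those clusters carried RNA switches transcribed on-chip from Illumina sequencing clusters. SNAP-549-labelled MS2 coat protein was titrated onto them in twofold steps (0.7 or 1.5 nM to 3 µM; per step 0.8–1.5 h down to 10–20 min). Conditions were 100 mM Tris-HCl pH 7.5, 80 mM KCl, 4 mM MgCl2, without or with constant ligand.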

[1] = input ligand: theophylline 20 uM
[2] = input ligand: tryptophan 2.4 mM
[3] = input ligand: theophylline 2 mM

Sequence | apparent KD of MS2 coat protein (input ligand: arginine 13.2 mM) | apparent KD of MS2 coat protein [1] | apparent KD of MS2 coat protein [2] | apparent KD of MS2 coat protein [3] | apparent KD of MS2 coat protein (input ligand: none)
UAUAUAUAUAUUGAUACCAGCAGAGAAAACGUUUAUCCUAACAUGAGGAUCACCCAUGUAUGCCCUUGGCAGCGAUAUAUAUAUA [8.C] | 22.2 nM | 31.3 nM | 21.7 nM | – | –
UAUCGUCAGACGGCCGCCACUAGAACAUGAGGAUCACCCAUGUAAGUGGCUGGUUCAUGGGUGUCUAGGACCGGGUCUGACGAAU [(Trp1)-(Ms2)-(T)'-(M)'-(Trp2)_Design20] | 14.8 nM | 21.2 nM | – | 17.6 nM | –
UAUGUCGCCGAAGAUACCAGCCUGGCAAGCAACAUGAGGAUCACCCAUGUAAUUACUUAUGGCCCUUGGCAGCUUCAAAUAGAGC [theeternabot_sameState_MS2_Theo_B_42] | 10.8 nM | 15.5 nM | 12.4 nM | – | –
UAUUUGGUGCGCGAGCGCUGGAUAAUUGAUACCAGUGAAGAAGAGCGCCCUUGGCAGCGAAUCCUAACAUGAGGAUCACCCAUGU [5.R] | 33.1 nM | 54.1 nM | 38.7 nM | – | –
UCACAUGAGGAUCACCCAUGUAAAGUUGAAGGAGCGAUCAUUAGGUCAGGUAGGUCGCAACACAUGAGGAUCACCCAUGUUGUCC [DOUBLE!!! :-D] | 25.7 nM | 49.9 nM | 38.3 nM | 47.1 nM | 40.8 nM
UCAGUGCAAGGAAGGAGCGGGUACAUGAGGAUCACCCAUGUGCAAGUGGUGAGCGUCCGUGCCCAGGUAGGUCGCCUAGCCUGGU [Quisso] | 56 nM | 180 nM | 101 nM | 149 nM | 109 nM
UCAUGCAGGUCGGCCGCCACUACACACAUGAGGAUCACCCAUGUAGUUACUGGGUGAAGUGGCAGUAGGACCGGGACCUGCACAU [Brourdmod16] | 253 nM | 369 nM | 460 nM | 452 nM | 607 nM
UCCAGACAUGAGGAUCACCCAUGUUGUGAUACCAGAACCGUGGAGUUCCCUUGGCAGCACUAAGAAGUUCCUGGAUCAGCUAGCG [theeternabot_sameState_MS2_Theo_A_9] | 29.9 nM | 36.2 nM | 30 nM | – | –
UCCUCCUCCGCAAGGAGGAGGAGUUGCGAUACCAGCACGGAAACGUGCCCUUGGCAGCGCACAUGAGGAUCACCCAUGUCAUGUU [#1 Exclusion - Theophylline A Attempt #9 (HarryS)] | 18.7 nM | 23.8 nM | 16.3 nM | – | –
UCGAAUGCGGCGGCCGCCACUCGCGGAUAACGAUAGCUUAACAUGAGGAUCACCCAUGUGUCAUGGAGGACCGGGCCCAUACGGU [kmkmullin] | 13.5 nM | 23.2 nM | 14.3 nM | 18.7 nM | 17 nM
UCGCACAUGAGGAUCACCCAUGUACUAGAUACCAGUGACGCGGUGCACCCUUGGCAGCUGGUGCUGAGUGAUGGUUCCCUCGGCA [Exclusion Theophylline A GF8] | 53.5 nM | 137 nM | 112 nM | – | –
UCGCCCGGGUCGGCCGCCACUGCGGUGAUGUGACAUGAGGAUCACCCAUGUUGUCAUGUGGCACAUAGGACCGGGACCCGGGCGA [Exclusion - Tryptophan B Attempt #4 (HarryS)] | 23.2 nM | 45.3 nM | – | 40.3 nM | –
UCGCUCUGGGUGAAUCCCAGAGAUGUGGAAGGAGCGGACGAAAGUCCAGGUAGGUCGCCAUCGAACAUGAGGAUCACCCAUGUAC [Same State - Arginine A (Freestyle 26)] | 42.7 nM | 77.5 nM | 46.2 nM | 75.6 nM | 46 nM
UCGCUCUGGGUGAAUCCCAGAGAUGUGGAAGGAGCGGAGGAAACUCCAGGUAGGUCGCCAUCGAACAUGAGGAUCACCCAUGUAC [Same State - Arginine A (Freestyle 28)] | 35.6 nM | 60.7 nM | 46.4 nM | 66.4 nM | 56.8 nM
UCGGAGAAGUCGGCCGCCACUGAACUCUUGUUCUACAUGAGGAUCACCCAUGUUCCUUUGUUUAACAGGACCGGGACUUAUACGA [JR_SSTryptoB_Sub009] | 108 nM | 283 nM | – | 346 nM | –
UCGGGCAGAGCGGCCGCCACUGUUUGGCAUGCGGAUGAAGGAACAUGAGGAUCACCCAUGUAGAUUAGGACCGGGCUAGCGGAGA [sscsmullin] | 12.1 nM | 42.1 nM | 16.3 nM | 18.4 nM | 17.2 nM
UCGUGUGUUUCGGAUACCAGUGAAAUCGAUACAUGAGGAUCACCCAUGUGAGAGGAUGUACACCCUUGGCAGCUGUCUGUAGCGG [asczmullin] | 26.9 nM | 38 nM | 38.3 nM | – | –
UGAAAGUAGGGAAGGAGCGCUACAACAUGAGGAUCACCCAUGUUAUGAGGAUCACCCAUGUGGCAGGUAGGUCGCCCAAAACAUG [Same State Arginine B] | 41.3 nM | 95.1 nM | 68 nM | 92.7 nM | 77 nM
UGACAUGAGGAUCACCCAUGUUUAGAUGAACGAGGACCGGUACGGCCGCCACUCGAUAAGUGGAAAGAGCGAGGGAUCGCAUGCU [Same State Trp A GF5] | 12.1 nM | 17.5 nM | 14.4 nM | 12.9 nM | 12.9 nM

Sequence | apparent KD of MS2 coat protein (input ligand: arginine 13.2 mM) | apparent KD of MS2 coat protein [1] | apparent KD of MS2 coat protein [2] | apparent KD of MS2 coat protein [3] | apparent KD of MS2 coat protein (input ligand: none)
UGACAUUGCUCAGAUACCAGACAUGAGGAUCACCCAUGUACCAAGGUAAAGAAAUAACGUGUCCCUUGGCAGCUGAGCAAUGUCU [TheoBX 1 #MS2Left #Theo2] | 10.6 nM | 14.8 nM | 10.4 nM | – | –
UGACAUUGCUCAGAUACCAGACAUGAGGAUCACCCAUGUGCCAACGUACAAAUAAUAAAUGUCCCUUGGCAGCUGAGCAAUGUCU [TheoBX 15 #MS2Left #Theo2] | 16.2 nM | 19.9 nM | 11.4 nM | – | –
UGACGAUACCUGGAUACCAGCGACAUGAGGAUCACCCAUGUAUGAGGAUCAGCCAUGUUAUGCCCUUGGCAGCCACGAAGGUCUU [CSCMULLIN] | 28.9 nM | 55.4 nM | 33.1 nM | – | –
UGAUUGAACGGAAGGAGCGUGAAGAGAGAGAAACAUGAGGAUCACCCAUGUAGAGAGAGAUCACAGGUAGGUCGCCGAGAGAUUG [11.C] | 17.8 nM | 20.8 nM | 17.1 nM | 21 nM | 15 nM
UGCAUCAUAAUCAUGUUGGUGCUAGGUGAUACCAGCAUCGAAAGAUGCCCUUGGCAGCACCAACAUGAGGAUCACCCAUGUAAUA [(MT)''-(M)'-(T')-(Theo)-(Ms2)_Design1/22_2] | 69.2 nM | 165 nM | 27 nM | – | –
UGCGUACAUGAGGAUCACCCAUGUACUGAAGGAGCGGGAGGCAUCUCAGGUAGGUCGCAGACAUGAGGAUCACCCAUGUAGUGGU [Exclusion Arginine A GF 18] | 16.1 nM | 44.6 nM | 26.6 nM | 38.3 nM | 26.9 nM
UGGGUAGCAUAGCUUGAUAGCUACACUGAAGGAGCGAGGAUAACCUCAGGUAGGUCGCAGACAUGAGGAUCACCCAUGUAGAUGG [Same State Arginine A GF18] | 63.9 nM | 359 nM | 276 nM | 231 nM | 186 nM
UGUAACAUGAGGAUCACCCAUGUGAGUGAUACCAGAUUAGUAGUAGUCCCUUGGCAGCAUAUUGGGCGAGUGUAUAGUCUAUGCG [Same State - Theophylline A (Freestyle 10)] | 94 nM | 250 nM | 205 nM | – | –
UGUAUGGACUGAAGGAGCGCCUCAAAUAACAUGAGGAUCACCCAUGUGGACAAAGUCCUUGGGCAGGUAGGUCGCAGUCCAUACU [ArgBX 5 #StaticStem #MS2Late] | 49.1 nM | 82.9 nM | 82.2 nM | 92.3 nM | 72.4 nM
UGUAUGGACUGAAGGAGCGGAAAAUAACCAUGAGGAUCACCCAUGGAAUAGGCGAAAGCCAUCCAGGUAGGUCGCAGUCCAUACU | 23.4 nM | 32.4 nM | 31.6 nM | 36.6 nM | 31.6 nM
UGUAUGGACUGAAGGAGCGGGUUGAUAAUCUGAGGAUCACCCAGGUAAAAGGCGAAAGCCACCCAGGUAGGUCGCAGUCCAUACU | 23.8 nM | 38.9 nM | 36.4 nM | 41.8 nM | 34 nM
UGUAUGUGAUCUGAUACCAGAGUGAAUAACCUGAGGAUCACCCUGGUAAGGCGAAAGCCACUCCCUUGGCAGCAGAUCGCAUACU | 121 nM | 100 nM | 136 nM | 26.6 nM | 136 nM
UGUAUGUGAUCUGAUACCAGUCCAACUGGUAAAACCUGAGGAUCACCCGGGUAAAAUUGGGACCCUUGGCAGCAGAUCGCAUACU | 201 nM | 285 nM | 683 nM | 26 nM | 475 nM
UGUCAUGGAAACAUGACAGGUUCUACCGGUCGAGGACCGGUACGGCCGCCACUCGAUUGGUGGCACAUGAGGAUCACCCAUGUUA [SS Tryp A #15] | 24.1 nM | 39.6 nM | – | 30.3 nM | –
UGUUAUUUCCGAAGGAGCGGGAUACAUGAGGAUCACCCAUGUACAUGAGGAUCAACAUGAACCCAGGUAGGUCGCGGAUUUUGUC [Exclusion Arginine B 3] | 34.1 nM | 300 nM | 228 nM | 379 nM | 405 nM
UGUUUGGUGCGCGAGUGUUGGAUGAUUGAUACCAGUGAAGAAGAGCGCCCUUGGCAGCGAAUCCUAACAUGAGGAUCACCCAUGU [5.V] | 39.3 nM | 57.7 nM | 51.4 nM | – | –
UUAAUCAUGGAUGAAAACAUUUAUGCAGAAGGAGCGUGAUAAAACACAGGUAGGUCGCUGAAGGGAACAUGAGGAUCACCCAUGU [AstrosSSArgA#17] | 35.9 nM | 74.5 nM | 41.3 nM | 69.5 nM | 65.1 nM
UUAGCACAUGAGGAUCACCCAUGUCUCGAUACCAGAUAAGUUCCGAUCCCUUGGCAGCGACAAGCUUGCAAACUGCGACUAUUCU [theeternabot_sameState_MS2_Theo_A_42] | 22.2 nM | 32.2 nM | 24.8 nM | – | –
UUAGUAACGACGGCCGCCACUGGAUAUGAACAUGAGGAUCACCCAUGUAGAGAUCCUAGAAUAAACAGGACCGGGUCUGAUAAUA [Exclusion Tryptophane B GF 2] | 17.9 nM | 21.6 nM | – | 17.3 nM | –
